The target of this experiment is KDR1-3 domains (UniProt P35968). Nature of the experiment: Octet BLI, KDR1-3 domains on biosensor, scFv in solution. For orientation: Biolayer interferometry detects binding as a change in optical thickness at a sensor tip.
Chain of KDR1-3 domains (P35968 20-327 limits assumed): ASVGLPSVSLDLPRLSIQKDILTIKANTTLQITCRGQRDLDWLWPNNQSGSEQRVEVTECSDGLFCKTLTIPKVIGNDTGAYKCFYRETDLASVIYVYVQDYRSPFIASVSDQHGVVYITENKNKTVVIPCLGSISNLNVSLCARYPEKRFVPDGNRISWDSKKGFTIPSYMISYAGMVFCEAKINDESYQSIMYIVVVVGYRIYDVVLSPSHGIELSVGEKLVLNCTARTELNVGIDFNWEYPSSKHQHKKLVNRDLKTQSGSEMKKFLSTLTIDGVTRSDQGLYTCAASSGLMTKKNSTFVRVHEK

B1: 6A6 (scFv form, off-rate screening) (scFv, from another filing, V domains shown)
VH: QMQLVQSGAEVKKPGASVKLSCKASGYTFSSYWMHWVRQAPGQRLEWMGEINPGNGHTNYNEKFKSRVTITVDKSASTAYMELSSLRSEDTAVYYCAKIWGPSLTSPFDYWGQGTLVTVSS
VL: SNFMLTQPPSVSVSPGKTARITCRGDNLGDVNVHWYQQRPGQAPVLVMYYDADRPSGIPERFSGSNSGNTATLTISGVEAGDEADYYCQVWDRTSEYVFGTGTKVTVLG
Broadly, the koff is the rate constant with which the complex falls apart. Molecule B1 showed a koff of 0.000266 s⁻¹.

The values are drawn from patent US20250179192A1.
